According to the supplement of paper PMC12042874:
± gives the uncertainty stated by the source.

Experiment: amyloid nucleation score (Sup35N fusion, yeast selection) (log enrichment); library NNK1; higher = more nucleation; inactive = no reads after selection
Summary of the method: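 Nucleation score: DiMSum log enrichment of output over input reads, centred on the mode score of non-aggregating sequences. Only sequences with at least 100 input reads were kept. Reads came from Illumina sequencing of plasmid inserts before and after 7 days of growth at 30°C without adenine and uracil, in psi-negative yeast expressing Sup35N fused to peptides of 20 random codons after 24 hours of induction with 100 μM copper sulfate.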

| Substance | amyloid nucleation score |
| --- | --- |
| TNWVWELL | -0.544 ± 1.9 |
| TNYQRIQHA | -0.903 ± 2.4 |
| TPSIYRNVCDIEGLLSSRYL | 0.36 ± 0.54 |
| TPTTLKDYYPRAGNINRMTY | -0.15 ± 0.28 |
| TPYLDFI | 1.12 ± 0.56 |
| TQKHCY | 0.326 ± 0.33 |
| TQVWKPLHKTSLHYSDREVS | -0.111 ± 0.38 |
| TRFNTSEDHSLDNIEA | -0.542 ± 0.93 |
| TRFVVVVMIISQLRCLLCDM | 0.61 ± 1 |
| TRISFRKGV | -0.54 ± 0.5 |
| TRKPEPINPQSIWSTVLQHE | 0.54 ± 0.48 |
| TRLSRERINRDWEREGCLTP | 0.798 ± 0.81 |
| TRLVVLRSW | 1.14 ± 0.98 |
| TRNSDASGNCCVTGRDV | -0.849 ± 0.45 |
| TRNVMFINVALHFSNLVGWC | 4.21 ± 0.12 |
| TRRFR | -0.181 ± 0.41 |
| TRSDQPTILTSLYLERNYSP | -0.321 ± 0.56 |
| TRSKMALGVQYHGLMQLYCR | 0.121 ± 0.31 |
| TRSVWIEDRVTRAARFKGQR | -0.116 ± 0.47 |
| TRTGSRHPWRCLSDIASCNG | 0.466 ± 0.32 |
| TRYLRIWSPSQMICMWGRFL | 0.145 ± 0.5 |
| TSCPRYECNENTSVYGSLDT | inactive |

| Substance | amyloid nucleation score |
| --- | --- |
| TSEQYESLCWVSSLRRIFQK | 0.043 ± 0.48 |
| TSFGYLLVSRNWCNSWCIMS | 3.01 ± 0.079 |
| TSFLWLLTFERFD | inactive |
| TSGSCSACCLWVRGDNETFM | 7.881 ± 0.048 |
| TSHSETSEAFRRFSAPFLAN | 0.497 ± 0.64 |
| TSIFDEMSHVEEVRRTMIRG | 0.209 ± 0.35 |
| TSREGRGSLSVWSG | -0.19 ± 0.81 |
| TSSAFVCVENTLWTEVVEPM | 0.411 ± 0.55 |
| TSSCFMESRLK | 0.179 ± 0.59 |
| TSTSIGRVQCLYDSWRRTAW | 0.73 ± 0.62 |
| TSVVVRSPRGVVEPKHYFCI | -1.19 ± 2.4 |
| TSYNIMFQ | -0.584 ± 1.2 |
| TTEFIGES | 1.25 ± 0.73 |
| TTHLSHIYLLDASYNYKDSR | 0.27 ± 0.36 |
| TTLIILDTYLNMIVVGTLYW | 0.11 ± 0.22 |
| TTPIEAV | -0.178 ± 1.2 |
| TTWRMIFVVKRLHWFGLK | -0.445 ± 0.46 |
| TVDKTYFFYIVDCNVDKPGD | 1.08 ± 0.59 |
| TVLGQH | -0.058 ± 0.29 |
| TVLGTSQGSCGWSNPSRNAR | -0.455 ± 1.7 |
| TVMVGLKVCAHQLDSM | 1.28 ± 0.4 |
| TVNGLPN | 0.885 ± 0.92 |

| Substance | amyloid nucleation score |
| --- | --- |
| TVNSWRNLMSDLSWFSAVIL | -0.657 ± 0.39 |
| TVRRVGISWNWYIKTLYGSD | -1.12 ± 0.88 |
| TVRSYRSGRCYNFIVNRERA | -0.177 ± 0.75 |
| TVSVANSKWSDTVINMRLDR | 5.72 ± 0.065 |
| TVTYLLCYYDSALYRCATGL | 5.553 ± 0.052 |
| TVWSHCIEFFGHLRKLRSLL | 1.84 ± 0.5 |
| TVYIG | 0.258 ± 0.3 |
| TWIFVSLACKAL | -0.045 ± 0.4 |
| TWNRRVRVYTGYCPNVGMSL | 4.94 ± 0.059 |
| TWYLMMENVS | 4.69 ± 0.056 |
| TYCNQWIGCMGYRKKHEPR | -0.077 ± 0.41 |
| TYDVMTLGENVKGLCISARC | -0.412 ± 0.42 |
| TYGKIMVN | -0.418 ± 1.5 |
| TYLIKMSVT | 0.313 ± 0.39 |
| TYLQRCSIFRPSLTSMG | 0.273 ± 0.45 |
| TYQRRL | -0.414 ± 1.1 |
| TYRLIRSFC | 0.368 ± 0.4 |
| VAEAFTIGWGGNESSSVRSS | -0.348 ± 0.52 |
| VAFWLLC | 0.219 ± 0.38 |
| VAGAVNNSWWGLSNVARAKR | 0.082 ± 0.54 |
| VAKAPSNSCTLCHDWYGRST | 0.101 ± 1.4 |
